The target of data set [1] is T1, LRRKtide peptide (RLGRDKYKTLRQIRQ).
T1 chain: RLGRDKYKTLRQIRQ

Data set [2] concerns the target T2, Nictide (RLGWWRFYTLRRARQGNTKQR).
T2 chain: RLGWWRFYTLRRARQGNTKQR

From patent US20090142784 come the findings set out here.

B1: GST-LRRK2[1326-2527, G2019S] (protein)
chain: LKKAVPYNRMKLMIVGNTGSGKTTLLQQLMKTKKSDLGMQSATVGIDVKDWPIQIRDKRKRDLVLNVWDFAGREEFYSTHPHFMTQRALYLAVYDLSKGQAEVDAMKPWLFNIKARASSSPVILVGTHLDVSDEKQRKACMSKITKELLNKRGFPAIRDYHFVNATEESDALAKLRKTIINESLNFKIRDQLVVGQLIPDCYVELEKIILSERKNVPIEFPVIDRKRLLQLVRENQLQLDENELPHAVHFLNESGVLLHFQDPALQLSDLYFVEPKWLCKIMAQILTVKVEGCPKHPKGIISRRDVEKFLSKKRKFPKNYMSQYFKLLEKFQIALPIGEEYLLVPSSLSDHRPVIELPHCENSEIIIRLYEMPYFPMGFWSRLINRLLEISPYMLSGRERALRPNRMYWRQGIYLNWSPEAYCLVGSEVLDNHPESFLKITVPSCRKGCILLGQVVDHIDSLMEEWFPGLLEIDICGEGETLLKKWALYSFNDGEEHQKILLDDLMKKAEEGDLLVNPDQPRLTIPISQIAPDLILADLPRNIMLNNDELEFEQAPEFLLGDGSFGSVYRAAYEGEEVAVKIFNKHTSLRLLRQELVVLCHLHHPSLISLLAAGIRPRMLVMELASKGSLDRLLQQDKASLTRTLQHRIALHVADGLRYLHSAMIIYRDLKPHNVLLFTLYPNAAIIAKIADYSIAQYCCRMGIKTSEGTPGFRAPEVARGNVIYNQQADVYSFGLLLYDILTTGGRIVEGLKFPNEFDELEIQGKLPDPVKEYGCAPWPMVEKLIKQCLKENPQERPTSAQVFDILNSAELVCLTRRILLPKNVIVECMVATHHNSRNASIWLGCGHTDRGQLSFLDLNTEGYTSEEVADSRILCLALVHLPVEKESWIVSGTQSGTLLVINTEDGKKRHTLEKMTDSVTCLYCNSFSKQSKQKNFLLVGTADGKLAIFEDKTVKLKGAAPLKILNIGNVSTPLMCLSESTNSTERNVMWGGCGTKIFSFSNDFTIQKLIETRTSQLFSYAAFSDSNIITVVVDTALYIAKQNSPVVEVWDKKTEKLCGLIDCVHFLREVMVKENKESKHKMSYSGRVKTLCLQKNTALWIGTGGGHILLLDLSTRRLIRVIYNFCNSVRVMMTAQLGSLKNVMLVLGYNRKNTEGTQKQKEIQSCLTVWDINLPHEVQNLEKHIEVRKELAEKMRRTSVE
For B1, the “Km (phosphorylation of LRRKtide, P81 paper 32P assay)” value in data set [1] was “a similar Km of approximately 200 µM”. Besides, the “Km (concentration dependent phosphorylation of Nictide, 5 min reactions)” value in data set [2] was “Calculated Km values are 6 µM for Nictide”.
